This is an account of results in paper PMC4919469.

For assay [1], the target named is full-length Cdc42Q61L (human) (UniProt P60953). Kind of assay: scintillation proximity assay; competition; free effector domain titrated into 30 nM Cdc42·[3H]GTP and 30 nM GST-ACK (in Fig. 7B GST-ACK or GST-WASP GBD) immobilised on a fluoromicrosphere; Kd from competition binding isotherms.
In assay [2] the target is Cdc42Δ7Q61L (human) (UniProt P60953). The description is as above.
Chain of Cdc42Δ7Q61L (human) (P60953 1-184 Q61L): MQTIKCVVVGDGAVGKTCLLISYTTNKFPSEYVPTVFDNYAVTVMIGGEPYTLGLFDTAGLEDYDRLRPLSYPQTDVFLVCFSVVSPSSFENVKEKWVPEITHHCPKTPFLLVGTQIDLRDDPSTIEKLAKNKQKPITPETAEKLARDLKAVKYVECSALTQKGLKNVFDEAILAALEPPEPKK

Chain of full-length Cdc42Q61L (human) (P60953 whole entry Q61L, the tested form may be a part): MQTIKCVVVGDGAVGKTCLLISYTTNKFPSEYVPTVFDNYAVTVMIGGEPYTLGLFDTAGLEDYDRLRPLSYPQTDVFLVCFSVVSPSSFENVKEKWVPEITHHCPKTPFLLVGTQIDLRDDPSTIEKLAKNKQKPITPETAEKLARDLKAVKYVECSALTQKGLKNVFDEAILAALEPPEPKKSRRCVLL

One may read the Kd as the constant that tells how readily two partners part at equilibrium. The low end stands for a tighter complex, the high end for a looser complex. Take free ACK GBD (domain or fragment): the dissociation constant (Kd) in assay [1] came out at 11 nM; in assay [2], 32 nM.
